US20200024330A1

Key:
[1] = biological target: HIV-1 JR-CSF Env I307A (HIV-1 JR-CSF) (UniProt P20871); assay: cell-based or functional assay
[2] = biological target: HIV-1 JR-CSF Env I424A (HIV-1 (isolate JR-CSF)) (UniProt P20871); assay: cell-based or functional assay
[3] = biological target: HIV-1 JR-CSF Env N295A (HIV-1 JR-CSF) (UniProt P20871); assay: cell-based or functional assay
[4] = biological target: HIV-1 JR-CSF Env I423A (HIV-1 (isolate JR-CSF)) (UniProt P20871); assay: cell-based or functional assay
[5] = biological target: HIV-1 JR-CSF Env R327A (HIV-1 isolate JR-CSF) (UniProt P20871); assay: cell-based or functional assay
[6] = biological target: HIV-1 JR-CSF Env I415A (HIV-1 (isolate JR-CSF)) (UniProt P20871); assay: cell-based or functional assay
[7] = biological target: HIV-1 JR-CSF Env T303A (HIV-1 JR-CSF) (UniProt P20871); assay: cell-based or functional assay
[8] = biological target: HIV-1 JR-CSF Env T388A (HIV-1 (isolate JR-CSF)) (UniProt P20871); assay: cell-based or functional assay
[9] = biological target: HIV-1 Env of isolate MGRM-C-026 (HIV-1); assay: cell-based or functional assay
[10] = biological target: HIV-1 JR-CSF Env S334A (HIV-1 isolate JR-CSF) (UniProt P20871); assay: cell-based or functional assay
[11] = biological target: HIV-1 JR-CSF Env I414A (HIV-1 (isolate JR-CSF)) (UniProt P20871); assay: cell-based or functional assay
[12] = biological target: HIV-1 JR-CSF Env R315A (HIV-1 isolate JR-CSF) (UniProt P20871); assay: cell-based or functional assay
[13] = biological target: Env of the clade A HIV-1 pseudoviruses of the cross-clade 162-pseudovirus panel (n = 26); assay: cell-based or functional assay
[14] = biological target: HIV-1 JR-CSF Env T202A (HIV-1 JR-CSF) (UniProt P20871); assay: cell-based or functional assay
[15] = biological target: HIV-1 JR-CSF Env E321aA (HIV-1 isolate JR-CSF) (UniProt P20871); assay: cell-based or functional assay
[16] = biological target: HIV-1 JR-CSF Env T297A (HIV-1 JR-CSF) (UniProt P20871); assay: cell-based or functional assay
[17] = biological target: HIV-1 JR-CSF Env T413A (HIV-1 (isolate JR-CSF)) (UniProt P20871); assay: cell-based or functional assay
[18] = biological target: HIV-1 JR-CSF Env S199A (HIV-1 JR-CSF) (UniProt P20871); assay: cell-based or functional assay
[19] = biological target: Env of the clade F HIV-1 pseudoviruses of the cross-clade 162-pseudovirus panel (n = 15); assay: cell-based or functional assay
[20] = biological target: Env of the clade D HIV-1 pseudoviruses of the cross-clade 162-pseudovirus panel (n = 25); assay: cell-based or functional assay
[21] = biological target: HIV-1 JR-CSF Env P313A (HIV-1 JR-CSF) (UniProt P20871); assay: cell-based or functional assay
[22] = biological target: HIV-1 JR-CSF Env D325A (HIV-1 isolate JR-CSF) (UniProt P20871); assay: cell-based or functional assay
[23] = biological target: HIV-1 JR-CSF Env N411A (HIV-1 (isolate JR-CSF)) (UniProt P20871); assay: cell-based or functional assay
[24] = biological target: HIV-1 JR-CSF Env V292A (HIV-1 JR-CSF) (UniProt P20871); assay: cell-based or functional assay
[25] = biological target: HIV-1 JR-CSF Env S306A (HIV-1 JR-CSF) (UniProt P20871); assay: cell-based or functional assay
[26] = biological target: HIV-1 JR-CSF Env R419A (HIV-1 (isolate JR-CSF)) (UniProt P20871); assay: cell-based or functional assay
[27] = biological target: HIV-1 JR-CSF Env I323A (HIV-1 isolate JR-CSF) (UniProt P20871); assay: cell-based or functional assay
[28] = biological target: Env of the clade AG HIV-1 pseudoviruses of the cross-clade 162-pseudovirus panel (n = 10); assay: cell-based or functional assay
[29] = biological target: HIV-1 JR-CSF Env T320A (HIV-1 isolate JR-CSF) (UniProt P20871); assay: cell-based or functional assay
[30] = biological target: Env of the clade B HIV-1 pseudoviruses of the cross-clade 162-pseudovirus panel (n = 31); assay: cell-based or functional assay
[31] = biological target: HIV-1 JR-CSF Env L416A (HIV-1 (isolate JR-CSF)) (UniProt P20871); assay: cell-based or functional assay
[32] = biological target: HIV-1 JR-CSF Env Q337A (HIV-1 isolate JR-CSF) (UniProt P20871); assay: cell-based or functional assay
[33] = biological target: HIV-1 JR-CSF Env H330A (HIV-1 isolate JR-CSF) (UniProt P20871); assay: cell-based or functional assay
[34] = biological target: HIV-1 JR-CSF Env N262A (HIV-1 JR-CSF) (UniProt P20871); assay: cell-based or functional assay
[35] = biological target: HIV-1 JR-CSF Env T319A (HIV-1 isolate JR-CSF) (UniProt P20871); assay: cell-based or functional assay
[36] = biological target: HIV-1 JR-CSF Env N339A (HIV-1 isolate JR-CSF) (UniProt P20871); assay: cell-based or functional assay
[37] = biological target: HIV-1 JR-CSF Env S387A (HIV-1 (isolate JR-CSF)) (UniProt P20871); assay: cell-based or functional assay
[38] = biological target: JR-FL gp120 ΔV1/ΔV2 (HIV-1 (isolate JR-FL)); assay: ELISA on coated gp120; EC50 by nonlinear regression
[39] = biological target: WT JR-FL gp120 (HIV-1 (isolate JR-FL)); assay: as above

B1: PGT-128 (antibody, V domains shown)
VH: QPQLQESGPTLVEASETLSLTCAVSGDSTAACNSFWGWVRQPPGKGLEWVGSLSHCASYWNRGWTYHNPSLKSRLTLALDTPKNLVFLKLNSVTAADTATYYCARFGGEVLRYTDWPKPAWVDLWGRGTLVTVSS
VL: QSALTQPPSASGSPGQSITISCTGTSNNFVSWYQQHAGKAPKLVIYDVNKRPSGVPDRFSGSKSGNTASLTVSGLQTDDEAVYYCGSLVGNWDVIFGGGTKLTVL
[1]
  Fold IC50 increase relative to wild-type: 3.7 fold
[2]
  Fold IC50 increase relative to wild-type: 1.3 fold
[3]
  Fold IC50 increase relative to wild-type: 1 fold
[4]
  Fold IC50 increase relative to wild-type: 2.6 fold
[5]
  Fold IC50 increase relative to wild-type: 2.5 fold
[6]
  Fold IC50 increase relative to wild-type: 0.7 fold
[7]
  Fold IC50 increase relative to wild-type: > 500 fold
[8]
  Fold IC50 increase relative to wild-type: 1 fold
[9]
  Polyclonal Transfectant Neutralization Index (well 5114 A19): 32.2
  Primary Neutralization Index (B cell culture well 5114 A19): 17.1
[10]
  Fold IC50 increase relative to wild-type: 1.4 fold
[11]
  Fold IC50 increase relative to wild-type: 1.4 fold
[12]
  Fold IC50 increase relative to wild-type: 0.4 fold
[13]
  Median IC50 against viruses neutralized with an IC50 <50 µg/ml: 0.01 µg/mL
[14]
  Fold IC50 increase relative to wild-type: 1.1 fold
[15]
  Fold IC50 increase relative to wild-type: 1.3 fold
[16]
  Fold IC50 increase relative to wild-type: 1.1 fold
[17]
  Fold IC50 increase relative to wild-type: 1 fold
[18]
  Fold IC50 increase relative to wild-type: 1 fold
[19]
  Median IC50 against viruses neutralized with an IC50 <50 µg/ml: 0.52 µg/mL
[20]
  Median IC50 against viruses neutralized with an IC50 <50 µg/ml: 0.02 µg/mL
[21]
  Fold IC50 increase relative to wild-type: 1 fold
[22]
  Fold IC50 increase relative to wild-type: 0.5 fold
[23]
  Fold IC50 increase relative to wild-type: 0.7 fold
[24]
  Fold IC50 increase relative to wild-type: 2.1 fold
[25]
  Fold IC50 increase relative to wild-type: 1.1 fold
[26]
  Fold IC50 increase relative to wild-type: 0.5 fold
[27]
  Fold IC50 increase relative to wild-type: 3 fold
[28]
  Median IC50 against viruses neutralized with an IC50 <50 µg/ml: 0.67 µg/mL
[29]
  Fold IC50 increase relative to wild-type: 1 fold
[30]
  Median IC50 against viruses neutralized with an IC50 <50 µg/ml: 0.01 µg/mL
[31]
  Fold IC50 increase relative to wild-type: 1.1 fold
[32]
  Fold IC50 increase relative to wild-type: 0.7 fold
[33]
  Fold IC50 increase relative to wild-type: 0.3 fold
[34]
  Fold IC50 increase relative to wild-type: 1.6 fold
[35]
  Fold IC50 increase relative to wild-type: 0.5 fold
[36]
  Fold IC50 increase relative to wild-type: 0.8 fold
[37]
  Fold IC50 increase relative to wild-type: 1.2 fold
[38]
  EC50: 0.3 µg/mL
[39]
  EC50: 0.1 µg/mL

B2: PGT-135 (antibody, V domains shown)
VH: QLQMQESGPGLVKPSETLSLSCTVSGDSIRGGEWGDKDYHWGWVRHSAGKGLEWIGSIHWRGTTHYKESLRRRVSMSIDTSRNWFSLRLASVTAADTAVYFCARHRHHDVFMLVPIAGWFDVWGPGVQVTVSS
VL: EIVMTQSPDTLSVSPGETVTLSCRASQNINKNLAWYQYKPGQSPRLVIFETYSKIAAFPARFVASGSGTEFTLTINNMQSEDVAVYYCQQYEEWPRTFGQGTKVDIK
[1]
  Fold IC50 increase relative to wild-type: 0.3 fold
[2]
  Fold IC50 increase relative to wild-type: 0.1 fold
[3]
  Fold IC50 increase relative to wild-type: > 18 fold
[4]
  Fold IC50 increase relative to wild-type: 0.1 fold
[5]
  Fold IC50 increase relative to wild-type: 0.67 fold
[6]
  Fold IC50 increase relative to wild-type: 5 fold
[7]
  Fold IC50 increase relative to wild-type: 0.3 fold
[8]
  Fold IC50 increase relative to wild-type: 0.1 fold
[9]
  Primary Neutralization Index (B cell culture well 5343 B8): 6.5
  Primary Neutralization Index (B cell culture well 5344 E16): 3.6
[10]
  Fold IC50 increase relative to wild-type: > 30 fold
[11]
  Fold IC50 increase relative to wild-type: 1.2 fold
[12]
  Fold IC50 increase relative to wild-type: 1.8 fold
[13]
  Median IC50 against viruses neutralized with an IC50 <50 µg/ml: 0.64 µg/mL
[14]
  Fold IC50 increase relative to wild-type: 1.8 fold
[15]
  Fold IC50 increase relative to wild-type: 0.8 fold
[16]
  Fold IC50 increase relative to wild-type: > 30 fold
[17]
  Fold IC50 increase relative to wild-type: 0.3 fold
[18]
  Fold IC50 increase relative to wild-type: 0.3 fold
[19]
  Median IC50 against viruses neutralized with an IC50 <50 µg/ml: 0.21 µg/mL
[20]
  Median IC50 against viruses neutralized with an IC50 <50 µg/ml: 1.09 µg/mL
[21]
  Fold IC50 increase relative to wild-type: 0.5 fold
[22]
  Fold IC50 increase relative to wild-type: 0.5 fold
[23]
  Fold IC50 increase relative to wild-type: 0.2 fold
[24]
  Fold IC50 increase relative to wild-type: 2 fold
[25]
  Fold IC50 increase relative to wild-type: 0.4 fold
[26]
  Fold IC50 increase relative to wild-type: 3.9 fold
[27]
  Fold IC50 increase relative to wild-type: 1.5 fold
[28]
  Median IC50 against viruses neutralized with an IC50 <50 µg/ml: 27.4 µg/mL
[29]
  Fold IC50 increase relative to wild-type: 0.5 fold
[30]
  Median IC50 against viruses neutralized with an IC50 <50 µg/ml: 0.15 µg/mL
[31]
  Fold IC50 increase relative to wild-type: 1.2 fold
[32]
  Fold IC50 increase relative to wild-type: 2.1 fold
[33]
  Fold IC50 increase relative to wild-type: > 250 fold
[34]
  Fold IC50 increase relative to wild-type: 2.1 fold
[35]
  Fold IC50 increase relative to wild-type: 0.4 fold
[36]
  Fold IC50 increase relative to wild-type: 1.2 fold
[37]
  Fold IC50 increase relative to wild-type: 0.6 fold
[38]
  EC50: 0.1 µg/mL
[39]
  EC50: 0.1 µg/mL
